Assay results: paper PMC2745997 (Nature neuroscience, 2009)
Each block holds one molecule with its values, some of them ahead of it.

What was measured:
[1] = molecular target: UNC-5/HA (C. elegans); assay: LUMIER
[2] = molecular target: RCM-HA (in Cos-7 cells) ( (mammalian), UniProt O08747 41-931); assay: radioligand binding
Sequence of RCM-HA (in Cos-7 cells) (O08747 41-931): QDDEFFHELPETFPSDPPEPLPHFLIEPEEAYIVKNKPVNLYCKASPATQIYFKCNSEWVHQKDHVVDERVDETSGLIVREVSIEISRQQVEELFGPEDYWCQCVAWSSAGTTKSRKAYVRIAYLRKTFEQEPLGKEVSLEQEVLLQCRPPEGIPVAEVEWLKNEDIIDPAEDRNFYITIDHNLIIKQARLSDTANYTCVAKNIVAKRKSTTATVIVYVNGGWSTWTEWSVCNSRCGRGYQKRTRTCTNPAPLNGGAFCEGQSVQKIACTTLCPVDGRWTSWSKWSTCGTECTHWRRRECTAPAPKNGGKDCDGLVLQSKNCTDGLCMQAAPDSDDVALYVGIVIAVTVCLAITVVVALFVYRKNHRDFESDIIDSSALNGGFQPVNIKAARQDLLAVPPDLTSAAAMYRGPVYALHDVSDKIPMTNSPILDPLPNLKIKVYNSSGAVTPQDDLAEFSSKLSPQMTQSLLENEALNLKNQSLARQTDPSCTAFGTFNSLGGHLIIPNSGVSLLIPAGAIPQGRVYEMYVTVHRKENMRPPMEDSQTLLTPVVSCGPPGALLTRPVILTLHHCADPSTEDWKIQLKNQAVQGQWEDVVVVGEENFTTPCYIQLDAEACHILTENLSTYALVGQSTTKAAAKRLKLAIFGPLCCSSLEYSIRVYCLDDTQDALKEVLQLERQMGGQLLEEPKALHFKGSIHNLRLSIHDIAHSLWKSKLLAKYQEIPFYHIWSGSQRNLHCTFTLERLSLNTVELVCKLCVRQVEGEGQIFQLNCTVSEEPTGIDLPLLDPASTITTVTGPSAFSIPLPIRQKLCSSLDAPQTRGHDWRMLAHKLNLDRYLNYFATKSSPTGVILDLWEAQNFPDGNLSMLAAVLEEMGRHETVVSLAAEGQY

Sequence of UNC-5/HA (C. elegans) (Q26261 whole entry): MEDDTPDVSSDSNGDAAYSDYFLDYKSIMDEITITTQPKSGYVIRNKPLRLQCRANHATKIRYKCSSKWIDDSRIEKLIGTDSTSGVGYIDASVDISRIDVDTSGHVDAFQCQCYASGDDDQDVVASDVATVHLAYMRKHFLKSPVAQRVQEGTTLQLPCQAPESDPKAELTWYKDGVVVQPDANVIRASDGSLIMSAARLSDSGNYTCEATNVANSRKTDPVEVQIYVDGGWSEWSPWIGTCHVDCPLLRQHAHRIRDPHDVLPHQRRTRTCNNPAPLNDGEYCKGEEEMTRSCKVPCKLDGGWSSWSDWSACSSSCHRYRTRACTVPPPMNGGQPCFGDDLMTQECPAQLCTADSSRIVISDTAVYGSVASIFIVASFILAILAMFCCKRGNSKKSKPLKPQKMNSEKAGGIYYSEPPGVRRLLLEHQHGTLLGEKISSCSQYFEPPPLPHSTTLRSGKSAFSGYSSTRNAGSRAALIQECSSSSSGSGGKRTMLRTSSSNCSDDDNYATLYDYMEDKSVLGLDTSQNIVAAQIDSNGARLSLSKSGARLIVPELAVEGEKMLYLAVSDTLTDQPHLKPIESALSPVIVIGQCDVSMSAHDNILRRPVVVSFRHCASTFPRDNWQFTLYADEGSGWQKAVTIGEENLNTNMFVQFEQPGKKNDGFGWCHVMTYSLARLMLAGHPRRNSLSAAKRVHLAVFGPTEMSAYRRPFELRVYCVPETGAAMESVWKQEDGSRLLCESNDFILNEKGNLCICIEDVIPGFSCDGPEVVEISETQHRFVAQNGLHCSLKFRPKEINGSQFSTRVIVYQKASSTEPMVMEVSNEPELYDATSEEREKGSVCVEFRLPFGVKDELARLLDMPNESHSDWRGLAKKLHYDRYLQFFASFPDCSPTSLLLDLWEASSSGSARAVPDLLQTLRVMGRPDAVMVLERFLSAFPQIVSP

fold increase in luciferase activity over mock transfected cells [1]: 7 fold
Molecule: Gluc-UNC-129 (from UniProt G5EBY8 19-407) (ligand)

Kd [2]: 4 nM
B1: 125I-BMP7 (ligand, UniProt P18075 293-431, looked up)
chain: STGSKQRSQNRSKTPKNQEALRMANVAENSSSDQRQACKKHELYVSFRDLGWQDWIIAPEGYAAYYCEGECAFPLNSYMNATNHAIVQTLVHFINPETVPKPCCAPTQLNAISVLYFDDSSNVILKKYRNMVVRACGCH
modifications: 125I label (iodinated)
